Measured values from patent US20210347908A1 (ELPISCIENCE SUZHOU BIOPHARMA, published 2021).
Like-named read-outs stand apart in the source and are kept apart here.

B1: Antibody 050 (hybridoma antibody) (antibody, V domains shown)
VH: QIQLVQSGPELKKPGETVKISCKASGYTFTHYSMHWVKQAPGKGLKWMGWINTETAEPTYVDDFKGRFAFSLEASASTAFFQINNLKNEDTATYFCARGGLRQGDYWGQGTTLTVSS
VL: QIVLTQSPPIMSASPGEKVTLTCSATSSVSASYLYWFQQKPGSSPKLWIYSTSNLASGVPARFSGSGSGTSYSLTISNMEPADAASYFCHQWSSYPYTFGGGTKLEIK
notes: mouse hybridoma antibody
B2: Antibody 022 (hybridoma antibody) (antibody, V domains shown)
VH: QIQLVQSGPELKKPGETVKISCKASGYTFTDYAMHWVKQAPGKGLKWMGWKNTETGESTYAEDFKGRFAFFLETSASTAYLQINNVKNEDTATYFCARGGYGSNYVMDYWGQGTSVIVSS
VL: DIQMTQSSSSFSVSLGDRVTITCKASEDIYNRLAWYQQKPGNAPRLLISGATSLETGVPSRFSGSGSGKDYTLSITSLQTEDVATYYCQQYWNSPRTFGGGTKLEIK
notes: mouse hybridoma antibody
B3: Antibody 060 (hybridoma antibody) (antibody, V domains shown)
VH: QVQLKESGPGLVAPSESLSITCTVSGFSLTNYDISWIRQSPGKGLEWLGVIWTGGDTNFNSAFMSRLSISKDKSKSQVFLKLNSLQTDDTAIYYCVRVQYFGGSYGPMDYWGQGISVTVSS
VL: DIQMTQASSYLSVSLGGRVTITCEASDHINDWLAWYQQTPGNAPRLLISGATSLETGVPSRFSGSGSGKDYTLSITSLQTEDIATYYCQQYWNTPLTFGAGTRLELK
notes: mouse hybridoma antibody
B4: Antibody 035 (hybridoma antibody) (antibody, V domains shown)
VH: QIQLVQSGPELRKPGETVKISCKASGYSFTNYAMNWVKQAPGKVLKWMGFINTYTGEPTYADDFKGRFAFSLETSASTAYLQINNLKNEDTATYFCTRTRGYYDFDGGAFDYWGQGTSLTVSS
VL: DIVMTQSQKFMSTSIGDRVSVTCKASQNVGTHLAWYQQKPGQSPKALIFSASYRYIGVPDRFTGSGSGTDFTLTITNVQSEDLAEYFCQQYNTYPLTFGAGTKLELK
notes: mouse hybridoma antibody
B5: Antibody 074 (hybridoma antibody) (antibody, V domains shown)
VH: QVQLQQPRAELVKPGASVMLSCKASGYTFSSYWIHWVRQGPGQGLEWIGLIHPNSGNTDCSETFKNKATLTVDTSSSTAYMQLSSLASEDSAVYYCARDGASYDWFVHWGQGTLVTVSA
VL: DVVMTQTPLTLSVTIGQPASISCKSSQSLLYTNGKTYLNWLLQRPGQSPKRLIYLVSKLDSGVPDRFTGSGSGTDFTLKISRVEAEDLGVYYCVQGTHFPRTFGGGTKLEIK
notes: mouse hybridoma antibody
B6: reference antibody HEFLB (antibody, V domains shown)
VH: EVQLVQSGAEVKKPGESLRISCKASGYSFTSYWVHWVRQMPGKGLEWMGNIDPSDSDTHYSPSFQGHVTLSVDKSISTAYLQLSSLKASDTAMYYCVRGGTGTLAYFAYWGQGTLVTVSS
VL: DVVMTQSPLSLPVTLGQPASISCRSSQSLVHSYGNTYLYWFQQRPGQSPRLLIYRVSNRFSGVPDRFSGSGSGTDFTLKISRVEAEDVGVYYCFQGTHVPYTFGGGTKVEIK
B7: Antibody 001 (hybridoma antibody) (antibody, V domains shown)
VH: EVKLEESGGGLVQPGGSMKLSCVASGFTFRNYWMNWVRQSPERGLEWIAEISLKSNTYATHYAESVKGRFAISRDGSKSSFYLQMNDLRAEDTGIYYCTTFTKVVADWHLDVWGAGTTVTVSS
VL: DVLMTQTPLSLPVSLGDQASISCRSSQNIVHSNGNTYLEWYLQKPGQSPKLLIYKVSNRFSGVPDRFSGSGSGTDFTLRISRVEAEDLGVYYCFQGSHVPFTFGSGTKLEIK
notes: mouse hybridoma antibody
B8: Antibody 032 (hybridoma antibody) (antibody, V domains shown)
VH: EVRLEESGGGLVQPGGSMKLSCVVSGFTFRNYWMNWVRQSPERGLEWIAEITLKSNTYATHYAESVKGRFAISRDDSKSSFYLQMNDLRPEDTGIYYCTTFTKVVADWHLDVWGAGTTVTVSS
VL: DVLMTQTPLSLPVNLGDQASISCRSSQNIVHSNGNTYLEWYLQKPGQSPKLLIYKVSNRFSGVPDRFSGSGSGTDFTLRISRVEAEDLGVYYCFQGSHVPFTFGSGTKLEIK
notes: mouse hybridoma antibody
B9: Antibody 002 (hybridoma antibody) (antibody, V domains shown)
VH: EVKLEESGGGLVQPGGSMILSCVASGFTFRNYWMNWVRQSPERGLEWIAEITLKSNTYATHYAESVKGRFAISRDDSKSSFYLQMNDLRPEDTGIYYCTTFTKVVADWHLDVWGAGTTVTVSS
VL: DVLMTQTPLSLPVSLGDQASISCRSSQNIVHSNGNTYLEWYLQKPGQSPKLLIYKISNRFSGVPDRFSGSGSGTDFTLRISRVEAEDLGVYYCFQGSHVPFTFGSGTKLEIQ
notes: mouse hybridoma antibody

Experiments:
[1] = target: T1, biotin labeled soluble human SIRPα v1 ECD recombinant protein (human, UniProt P78324 31-373, biotin labeled); test: competitive ELISA; competitor 002
T1 construct: extracellular domain
Experimental: (§1) Competitive ELISA assay was used for epitope binning of 9 functional antibodies. Briefly excessive competitor antibody and biotin labeled soluble human SIRPα v1 ECD recombinant protein were co-incubated with ELISA microplate coated antibody. After washing, HRP-SA was added and incubated at 37° C. for 1 hour. Then, […] of TMB solution (Biotechnology) was added. After incubation for 15 minutes at room temperature, the reaction was stopped by the addition of […] of 1N HCl. OD 450 nm was read. Competition ratio was calculated. The antibodies that can compete each other for binding to SIRPα have the similar binding epitope.

[2] = target: T1, biotin labeled soluble human SIRPα v1 …; test: competitive ELISA; competitor 055
Experimental: as §1

[3] = target: T1, biotin labeled soluble human SIRPα v1 …; test: competitive ELISA; competitor 001
Experimental: as §1

[4] = target: T1, biotin labeled soluble human SIRPα v1 …; test: competitive ELISA; competitor HEFLB
Experimental: as §1

[5] = target: T1, biotin labeled soluble human SIRPα v1 …; test: competitive ELISA; competitor KWAR23
Experimental: as §1

[6] = target: T1, biotin labeled soluble human SIRPα v1 …; test: competitive ELISA; competitor 060
Experimental: as §1

[7] = target: T1, biotin labeled soluble human SIRPα v1 …; test: competitive ELISA; competitor 050
Experimental: as §1

[8] = target: T1, biotin labeled soluble human SIRPα v1 …; test: competitive ELISA; competitor 035
Experimental: as §1

[9] = target: T1, biotin labeled soluble human SIRPα v1 …; test: competitive ELISA; competitor 074
Experimental: as §1

[10] = target: T1, biotin labeled soluble human SIRPα v1 …; test: competitive ELISA; competitor 29-AM4-5
Experimental: as §1

[11] = target: T2, Fc tagged human SIRPβ ECD recombinant protein (human, UniProt O00241 30-371); test: ELISA
T2 construct: range 1-371; cloned range includes the signal peptide; also called hSIRPβ; not shown: human IgG Fc region (hFc) of the pCPC vector
Experimental: (§2) Binding specificity of the purified hybridoma antibodies against SIRP family members was detected by ELISA assay using recombinant proteins of Fc tagged human SIRPα v1 ECD, human SIRPα v2 ECD, human SIRPβ ECD and human SIRPγ ECD. Briefly the antibodies were incubated with ELISA microplate coated antigens at 37° C. for 1 hour. After washing, horseradish peroxidase (HRP) labeled anti-mouse or anti-human IgG 2nd Ab (Sigma) was added and incubated at 37° C. for 1 hour. Then, 100 μl/well of TMB solution (Biotechnology) was added. After incubation for 15 minutes at room temperature, the reaction was stopped by the addition of 50 μl of 1N HCl. OD 450 nm was read and EC₅₀ was calculated. Other than 060 and HEFLB, all of the antibodies as tested can bind with both human SIRPα v1 and SIRPα v2. 060 and HEFLB can bind with human SIRPα v1 but not v2. Other than 055, all of the antibodies as tested can bind with human SIRPβ. In comparison with other known anti-SIRPα antibodies, only 022, 035 and 050 can bind with human SIRPγ weakly.
(§3) The purified chimeric antibodies were applied for binding specificity analysis and species cross reactivity analysis (refer to methods described in Example 3.3 and 3.4). FIGS. 1A to 1D show binding specificity of anti-SIRPα chimeric antibodies against recombinant proteins of human SIRPα v1 ECD (A), human SIRPα v2 ECD (B), human SIRPβ ECD (C) and human SIRPγ ECD (D) as measured by ELISA analysis.

[12] = target: T2, Fc tagged human SIRPβ ECD recombinant …; test: ELISA; remark: listed apart in the source
Experimental: as §2, §3

T1 sequence (P78324 31-373): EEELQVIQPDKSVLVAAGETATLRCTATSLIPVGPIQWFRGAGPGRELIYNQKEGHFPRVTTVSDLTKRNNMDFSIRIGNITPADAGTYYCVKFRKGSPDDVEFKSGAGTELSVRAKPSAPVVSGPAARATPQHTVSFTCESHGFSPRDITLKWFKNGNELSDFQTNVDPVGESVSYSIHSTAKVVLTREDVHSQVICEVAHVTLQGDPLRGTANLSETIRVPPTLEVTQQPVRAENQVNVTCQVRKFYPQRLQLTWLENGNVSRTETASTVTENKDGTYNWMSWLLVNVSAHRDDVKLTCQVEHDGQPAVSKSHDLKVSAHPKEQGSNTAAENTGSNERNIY
T2 sequence (O00241 30-371 limits assumed, form in doubt): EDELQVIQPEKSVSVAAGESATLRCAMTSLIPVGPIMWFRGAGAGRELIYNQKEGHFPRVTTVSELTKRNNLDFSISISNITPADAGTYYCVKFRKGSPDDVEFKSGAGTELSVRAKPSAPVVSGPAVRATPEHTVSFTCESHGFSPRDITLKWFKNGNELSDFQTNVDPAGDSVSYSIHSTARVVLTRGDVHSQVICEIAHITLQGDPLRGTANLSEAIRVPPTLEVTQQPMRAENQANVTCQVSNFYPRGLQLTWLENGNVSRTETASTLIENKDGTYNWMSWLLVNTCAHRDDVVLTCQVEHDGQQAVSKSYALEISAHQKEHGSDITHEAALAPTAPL

| Binder | % Competition [1] | % Competition [2] | % Competition [3] | % Competition [4] | % Competition [5] | % Competition [6] | % Competition [7] | % Competition [8] | % Competition [9] | % Competition [10] | EC50 [11] | EC50 [12] |
| --- | --- | --- | --- | --- | --- | --- | --- | --- | --- | --- | --- | --- |
| B1 | 3% | -16% | 2% | -14% | 0% | 17% | 83% | -4% | 2% | -6% | – | – |
| B2 | 6% | 1% | 2% | 1% | 1% | 26% | 79% | 0% | -1% | 2% | – | – |
| B3 | 1% | 7% | 0% | -3% | -4% | 93% | 14% | 3% | -1% | -5% | – | – |
| B4 | 86% | -1% | 92% | 2% | -6% | -1% | -3% | 93% | 6% | 50% | – | – |
| B5 | 14% | -17% | 33% | -14% | -14% | -1% | 7% | 10% | 92% | -19% | – | – |
| B6 | 81% | 1% | 89% | 88% | 94% | 7% | 4% | 51% | 2% | 70% | 80 pM | 80 pM |
| B7 | 95% | 4% | 96% | 36% | 83% | 19% | 5% | 96% | 5% | 92% | – | – |
| B8 | 93% | 3% | 94% | 14% | 69% | 7% | 4% | 91% | 6% | 83% | – | – |
| B9 | 90% | -16% | 94% | 7% | 71% | -10% | -13% | 93% | -10% | 87% | – | – |
